A short description of data set [1]: Dosing regimen model: required bioavailability for ingestible device (Tables 16, 17). The note with it: for Eff Dose: approved dose x bioavailability of the approved route (Table 16); for Eff. Dose: baseline dose x bioavailability, SC (Table 17), assumed weight 70 kg.
For data set [2] the following is noted: cited from earlier work.
The test system of a further data set is blood glucose. Briefly: Euglycemic clamp procedure (PD) in swine (Example 3). The data set is classed as in vivo, Yorkshire female swine. As to the method:
(§1) Blood samples were kept on wet ice until centrifugation and separation of plasma. […] Glucose was monitored every five (5) minutes during the study by portable glucose analyzer (StatStrip (SS) hospital glucose monitoring system (Nova Biomedical, Waltham, Mass.)). At each time point, approximate 0.1 mL of blood was drawn and immediately placed on a glucose monitoring test strip, and the whole blood glucose concentration was measured by the SS in triplicate.
A euglycemic clamp procedure (ECP) was employed to compare pharmacokinetics and pharmacodynamics of regular human Insulin (NOVOLIN® R) delivered subcutaneously (SC) in the neck versus intra-jejunally (IJ) by the jet delivery device in the small intestine. ECP was used to quantify the amount of glucose required to maintain normoglycemia after exogenous bolus of insulin. […] The animals were anesthetized for the entire ECP.

A short description of data set [3]: Insulin PK after SC or intra-jejunal (IJ) jet delivery in swine (Example 3). As to conditions: for Cmax of blood insulin, Average / Tmax of blood insulin, Average: average of animals; for Cmax of blood insulin / Tmax of blood insulin: individual animals. The data set is classed as in vivo, Yorkshire female swine. As to the method:
A total of 18 Yorkshire female swine in good health and weighing 60-70 kg each were included in this study. Swine were divided into two groups with 9 animals per group. […] A sham surgical laparotomy was performed. […] The jet delivery device was configured with the single nozzle in an axial orientation.
Swine were divided into two groups with 9 animals per group. […] In all 18 animals, a laparotomy procedure was performed to expose the abdominal cavity. Animals remained under anesthesia during the entire procedure for the PK/PD study.
For the laparotomy in group 02, a small segment of the jejunal mucosa and serosa was exposed by midline laparotomy and the jet delivery device was inserted through antimesenteric incision.
as §1
The animals were anesthetized for the entire ECP.

The conditions of data set [4]: pig, in vivo.
[5] abbreviates: IJ administration via jet delivery device, ~40 U.
Setting [6] is: SC administration group compared with IJ administration group.

Several values for one entry are separate records, joined by “and”; a condition that tells them apart may be missing. Equal entries are not always repeated. Where two headings read alike, the source gives them in different places. Marks after values point to notes of the source that are not given here.

For tocilizumab, the “Eff Dose” value in data set [1] is given as 129.6 mg. Moreover, the “Bio Avail (Approved Dosing Info)” value in data set [2] (in vivo, sc) was 80%.
Take denosumab: the “Eff Dose” value in data set [1] is given as 36.6 mg. For the same compound, the “Bio Avail (Approved Dosing Info)” value in data set [2] (in vivo, sc) is reported as 61%.
On to certolizumab pegol, for which, in data set [1], the “Eff Dose” value amounted to 160 mg. Further, the “Bio Avail (Approved Dosing Info)” value in data set [2] (in vivo, sc) is listed as 80%.
For the compound ustekinumab, in data set [1], the “Eff Dose” value was found to be 35.1 mg. The “Bio Avail (Approved Dosing Info)” value in data set [2] (in vivo, sc) is reported as 78%.
Consider “Novolin® R: regular human insulin (NOVOLIN® R)”, for which the “mean dextrose infusion rate, IJ vs SC” value in the data set on blood glucose (first 70 minutes after administration) is on record as “higher in the IJ administration group”. Moreover, the “mean dextrose infusion rate, IJ vs SC” value in the data set with blood glucose (from 75 minutes to 420 minutes post-administration) is “higher in the SC administration group”. For the same compound, in data set [3] (setting [5]), the “Cmax of blood insulin, Average” value is 77.40 uIU/mL; the “Tmax of blood insulin, Average” value was 0.9272 h; the “Cmax of blood insulin” value was 40.93 uIU/mL and 96.77 uIU/mL and 5.03 uIU/mL and 7.96 uIU/mL and 48.77 uIU/mL and 85.38 uIU/mL and 207.96 uIU/mL and 126.39 uIU/mL; the “Tmax of blood insulin” value was 20 min and 50 min and 90 min (2×) and 40 min (3×). In data set [3] (setting [6]), the “AUC of blood insulin, SC vs IJ” value is listed as “higher than that of the IJ administration group” and the “maximum plasma concentration Cmax, SC vs IJ” value is “higher than that of the IJ administration group”. Also, in data set [3] (SC administration), the “Cmax of blood insulin, Average” value came to 202.94 uIU/mL; the “Tmax of blood insulin, Average” value was determined as 1.452 h; the “Cmax of blood insulin” value was 451.00 uIU/mL and 60.74 uIU/mL and 354.00 uIU/mL and 356.60 uIU/mL and 65.71 uIU/mL and 59.18 uIU/mL and 73.34 uIU/mL; the “Tmax of blood insulin” value was 50 min (2×) and 180 min and 105 min and 30 min and 120 min. In addition, the “time to maximum plasma concentration (Tmax)” value in data set [3] (jejunum administration group (jet delivery device)) came out at 0.9272 h.
For glucagon, the “Eff. Dose” value in data set [1] is 2.0 mg. Also, the “Bioavail. (Baseline dose)” value in data set [2] (in vivo, sc) is 100.0%.
Consider somatropin, for which, in data set [1], the “Eff. Dose” value was 0.8 mg. Moreover, the “Bioavail. (Baseline dose)” value in data set [2] (in vivo, sc) is on record as 80.5%.
Regarding natalizumab, the “Eff Dose” value in data set [1] was 300 mg. Further, the “Bio Avail (Approved Dosing Info)” value in data set [2] (in vivo, iv) is 100%.
Take vedolizumab: the “Eff Dose” value in data set [1] was 300 mg. Besides, the “Bio Avail (Approved Dosing Info)” value in data set [2] (in vivo, iv) is 100%.
As to etanercept, the “Eff Dose” value in data set [1] is given as 29.0 mg. For the same compound, the “Bio Avail (Approved Dosing Info)” value in data set [2] (in vivo, sc) is 58%.
For golimumab, the “Eff Dose” value in data set [1] is reported as 25.5 mg. Besides, the “Bio Avail (Approved Dosing Info)” value in data set [2] (in vivo, sc) is listed as 51%.
In the case of `CC[C@H](C)[C@H](NC(=O)[C@H](CCC(=O)O)NC(=O)[C@H](CO)NC(=O)[C@@H](NC(=O)[C@@H](N)CO)C(C)C)C(=O)N[C@@H](CCC(N)=O)C(=O)N[C@@H](CC(C)C)C(=O)N[C@@H](CCSC)C(=O)N[C@@H](Cc1cnc[nH]1)C(=O)N[C@@H](CC(N)=O)C(=O)N[C@@H](CC(C)C)C(=O)NCC(=O)N[C@@H](CCCCN)C(=O)N[C@@H](Cc1cnc[nH]1)C(=O)N[C@@H](CC(C)C)C(=O)N[C@@H](CC(N)=O)C(=O)N[C@@H](CO)C(=O)N[C@@H](CCSC)C(=O)N[C@@H](CCC(=O)O)C(=O)N[C@@H](CCCN=C(N)N)C(=O)N[C@H](C(=O)N[C@@H](CCC(=O)O)C(=O)N[C@@H](Cc1c[nH]c2ccccc12)C(=O)N[C@@H](CC(C)C)C(=O)N[C@@H](CCCN=C(N)N)C(=O)N[C@@H](CCCCN)C(=O)N[C@@H](CCCCN)C(=O)N[C@@H](CC(C)C)C(=O)N[C@@H](CCC(N)=O)C(=O)N[C@@H](CC(=O)O)C(=O)N[C@H](C(=O)N[C@@H](Cc1cnc[nH]1)C(=O)N[C@@H](CC(N)=O)C(=O)N[C@@H](Cc1ccccc1)C(=O)O)C(C)C)C(C)C` [teriparatide], in data set [1], the “Eff Dose” value was found to be 0.02 mg. The “Bio Avail (Approved Dosing Info)” value in data set [2] (SC administration) is 95%.
alirocumab: the “Eff Dose” value in data set [1] stood at 63.8 mg. Further, the “Bio Avail (Approved Dosing Info)” value in data set [2] (in vivo, sc) is given as 85%.
Regarding `CC[C@H](C)[C@H](NC(=O)[C@H](Cc1ccccc1)NC(=O)[C@H](CCC(=O)O)NC(=O)[C@H](CCCCNC(=O)COCCOCCNC(=O)COCCOCCNC(=O)CC[C@H](NC(=O)CCCCCCCCCCCCCCCCC(=O)O)C(=O)O)NC(=O)[C@H](C)NC(=O)[C@H](C)NC(=O)[C@H](CCC(N)=O)NC(=O)CNC(=O)[C@H](CCC(=O)O)NC(=O)[C@H](CC(C)C)NC(=O)[C@H](Cc1ccc(O)cc1)NC(=O)[C@H](CO)NC(=O)[C@H](CO)NC(=O)[C@@H](NC(=O)[C@H](CC(=O)O)NC(=O)[C@H](CO)NC(=O)[C@@H](NC(=O)[C@H](Cc1ccccc1)NC(=O)[C@@H](NC(=O)CNC(=O)[C@H](CCC(=O)O)NC(=O)C(C)(C)NC(=O)[C@@H](N)Cc1cnc[nH]1)[C@@H](C)O)[C@@H](C)O)C(C)C)C(=O)N[C@@H](C)C(=O)N[C@@H](Cc1c[nH]c2ccccc12)C(=O)N[C@@H](CC(C)C)C(=O)N[C@H](C(=O)N[C@@H](CCCNC(=N)N)C(=O)NCC(=O)N[C@@H](CCCNC(=N)N)C(=O)NCC(=O)O)C(C)C` [Semaglutide, semaglutide], the “Bio Avail (Approved Dosing Info)” value in data set [2] (in vivo, sc) is 89%.
For orientation: Tmax means the time from dosing to the highest level. With dulaglutide, the “Eff Dose” value in data set [1] was found to be 0.49 mg. Further, in data set [2] (in vivo, sc), the “Bio Avail (Approved Dosing Info)” value is 65%. Moreover, in data set [4], the “Bioavailability relative to IV” value was 26.51 ± 6.55% ^a and the “Bioavailability relative to SC” value is reported as 49.11 ± 0.08% ^a. In data set [4] (1.2 mg), the “(AUC)T0-T240 h ± SEM” value is listed as 4355.86 ± 1094.57^a ng.hr/mL, the “AUCID (± SEM)” value turned out to be 3890.00 ± 94.73 ng·h/mL and the Tmax amounted to 8 h. In data set [4] (iv, 1.2 mg), the “(AUC)T0-T240 h ± SEM” value was found to be 16429.33 ± 600.93 ng·h/mL and the Tmax turned out to be 1 h. Also, in data set [4] (sc, 1.2 mg), the “(AUC)T0-T240 h ± SEM” value stood at 8869 ± 887.33 ng·h/mL and the Tmax was determined as 6 h.
As for secukinumab, in data set [1], the “Eff Dose” value worked out at 109.5 mg. Besides, the “Bio Avail (Approved Dosing Info)” value in data set [2] (in vivo, sc) is on record as 73%.

The values are drawn from patent publication US11007356B2, “Ingestible device for delivery of therapeutic agent to the gastrointestinal tract” (Progenity, Inc., priority 2018, dated 2021).
